Test results reported in patent US6818617B1 (Temple University- Of The Commonwealth System of Higher …, priority 1997, dated 2004).
“Also recorded” adds a separate entry of the source. Like-named read-outs stand apart in the source and are kept apart here.

Experiments:
α5β1 = target: T1, α5β1 (Homo sapiens, UniProt P05556+P08648); test: K562 cell adhesion to immobilized fibronectin; type: cell-based; details: 5 μg per sample of protein from fraction
T1 construct: host or cells: K562
Method: (§1) Adhesion of cultured cells labeled with 5-chloromethylfluorescein diacetate (CMFDA) was performed as described earlier (Marcinkiewicz et al., Blood 90:1565-1575 (1997)). […] Wells were blocked by 1% BSA in HBSS buffer. Cells were labeled with fluorescein by incubation with 12.5 AM CMFDA in HBSS buffer containing 1% BSA at 37° C. by 15 min. Unbound label was removed by washing with the same buffer. Labeled cells (1×10^5 per sample) were added to the well in the presence or absence of inhibitors and incubated at 37° C. for 30 min. Unbound cells were removed by aspiration, the wells were washed and bound cells were lysed by adding 0.5% Triton X-100. In parallel the standard curve was prepared in the same plate from known concentrations of labelled cells. The plate was read using a Cytofluor 2350 fluorescence plate reader (Millipore, Bedford, Mass.) at 485 nm EX(excitation) filter and 530 nm (emmision) filter.

α4 inactive G190A mutant = target: T2, α4 inactive G190A mutant (Homo sapiens, UniProt P13612, G223A); test: Adhesion of CHO cells transfected with α4 G190A mutant to immobilized EC3; type: cell-based; details: EC3 2 μg/well immobilized; adhesion identical with non transfected cells
T2 construct: expressed in transfected cells; host or cells: CHO, gift of Dr. Y. Takada
Method: as §1
EC3 (2 μg/well) and HP2/1 (1 μg/well) were immobilized on the 96well plate. The CHO cells were labeled with CMFDA and adhesion was performed as described above. […] Only A2 cells expressing wild type α4 adhered to immobilized HP2/1.

α4β7 [1] = target: T3, α4β7 (Homo sapiens, UniProt P13612+P26010); test: RPMI 8866 cell adhesion to MadCAM-1; type: cell-based; design: endogenous in cells; host or cells: JY cells (A11); RPMI 8866 cells (A12); details: RPMI 8866 cells, α4β7, ligand MadCAM-1
Method: as §1
(§2) The effect of each peptide on cell adhesion was determined as described above. […] Cells that attached to the plates were lysed with detergent, and fluorescence intensity was measured. Percent inhibition was measured at each concentration and IC50 was determined.

[2] = tested on: lymphocyte infiltration of pancreatic Langerhans islets; test: Lymphocyte infiltration of Langerhans islets in Non Obese Diabetic (NOD) mice; type: in vivo, mouse
Method: Female NOD mice from […] of age were purchased from Jackson Laboratory (Bar Harbor, Me.).
After nine weeks of treatment the animals were sacrificed by exposure to CO2. The pancreas was removed, frozen, and stored at −70° C. until the histological analysis. For the histological analysis, five μm sections of frozen tissue were fixed with acetone. For detection of infiltrating lymphocytes, the sections were stained with hematoxylin/eosin, and observed by light microscopy.

αvβ3 = target: T4, αvβ3 (Homo sapiens, UniProt P05106+P06756); test: VNRC3 (CHOαvβ3+) cell adhesion to immobilized vitronectin; type: cell-based
T4 construct: expressed in transfected cells; host or cells: CHO (VNRC3 cells), gift of Dr. M. Ginsberg
Method: as §1, §2

αIIbβ3 [3] = target: T5, αIIbβ3 (Homo sapiens, UniProt P05106+P08514); test: ADP-induced platelet aggregation in platelet rich plasma (ADP PA); type: cell-based; design: endogenous in cells; host or cells: platelets in platelet rich plasma; details: Platelets, αIIbβ3, ligand Fg, 30 μM ADP
Method: Blood from a healthy donor was collected into a syringe containing sodium citrate as an anticoagulant. The anticoagulated blood was centrifuged at 400 g for 17 minutes, and platelet rich plasma (PRP) was removed by aspiration.

α4β1 and α4β7 integrins = test: Panel of α4 integrin cell adhesion assays; type: cell-based; details: range over assays
Method: as §1, §2

α4β1 [4] = target: T6, α4β1 (UniProt G3HZ55+P13612); test: A2 (CHOα4+) cell adhesion to immobilized VCAM-1; type: cell-based, human; design: expressed in transfected cells; host or cells: CHO (A2 cells, α4+ α5+), gift of Dr. Y. Takada; details: A2 (CHOα4+) cells, ligand VCAM-1
Method: as §1, §2

α4β7 [5] = target: T3, α4β7; details: read-out: IC50, direct binding assay; JY cells, α4β7, VCAM-Ig
Method: (§3) The direct binding assay (DBA) with VCAM-11 g alkaline phosphatase conjugate was performed using Jurkat (α4β1 expressing) and JY (α4β7 expressing) cells according to procedure described in Lobb et al, Cell Adhes. Commun. 3:385-398 (1995)).

α4β1 [6] = target: T7, α4β1 (Homo sapiens, UniProt P05556+P13612); details: read-out: IC50, direct binding assay; Jurkat cells, α4β1, VCAM-Ig
Method: as §3

αIIbβ3 [7] = target: T5, αIIbβ3; test: A5 (CHOαIIbβ3+) cell adhesion to immobilized fibrinogen; type: cell-based; details: A5 (CHOαIIbβ3+) cells, ligand Fg
Method: as §1, §2

α4β1 integrin [8] = target: T8, α4β1 integrin (UniProt G3HZ55+P13612); test: HP2/1 antibody binding to α4B2 cells by flow cytometry; design: species or system human; details: 60 nM EC3, 10 μg/ml HP 2/1, flow cytometry
T8 construct: expressed in transfected cells; host or cells: B2 CHO cells (α5-deficient), gift of Dr. Y. Takada
Method: (§4) Samples for flow cytometry analysis were prepared as described (Marcinkiewicz et al., Biochem. J. 371:118-124 (1996)), and analyzed in a Coulter Epics flow cytometer (Miami, Fla.).
(§5) The adhesion study was performed using CMFDA-labeled Jurkat cells in the absence or presence 1 mM GRGDSP or GRGESP, or 10 μg/ml HP 2/1. Competition between EC3 and HP2/1 was also confirmed in cell suspension using FACS analysis. […] The experiment was performed using flow cytometry. Jurkat cells (open bars) or B2-CHO cells (CHO cells with deleted α5 transfected with α4) (closed bars) were incubated with 10 μg/ml HP 2/1 in the absence (a) or presence 60 nM EC3 (b) for 30 min at room temperature. After washing, 10 μg/ml of FITC-conjugated goat anti-mouse IgG was added and samples were incubated for another 30 min at room temperature. The samples were fixed by addition of 1% paraformaldehyde before measurement of fluorescence intensity.

α4β1 integrin [9] = target: T9, α4β1 integrin (Homo sapiens, UniProt P05556+P13612); test: HP2/1 antibody binding to Jurkat cells by flow cytometry; details: 60 nM EC3, 10 μg/ml HP 2/1, flow cytometry
T9 construct: host or cells: Jurkat
Method: as §4, §5

α6β1 = target: T10, α6β1 (Homo sapiens, UniProt P05556+P23229); test: K562 (α6+) cell adhesion to laminin; type: cell-based
T10 construct: expressed in transfected cells; host or cells: K562 transfected with α6
Method: as §1, §2

α4β1 [10] = target: T7, α4β1; test: Jurkat cell adhesion to CS-1; type: cell-based; design: host or cells: Jurkat; details: Jurkat cells, ligand CS-1
Method: as §1, §2

α4β1 [11] = target: T6, α4β1; test: α4B2 (CHOα4+/α5−) cell adhesion to immobilized VCAM-1; type: cell-based, human; design: expressed in transfected cells; host or cells: B2 CHO cells (α5-deficient), gift of Dr. Y. Takada; details: α4B2 (CHOα4+/α5−) cells, ligand VCAM-1
Method: as §1
Chinese hamster ovary cells transfected with human α4 integrin were provided by Dr. Y. Takada (Scripps Research Institute, La Jolla, Calif.). […] The bound cells were lysed with 0.5% Triton X-100, and fluorescence was measured.
as §2

α4β1 [12] = target: T7, α4β1; test: Jurkat cell adhesion to immobilized VCAM-1; type: cell-based; design: host or cells: Jurkat
Method: as §1
The cell adhesion assay (as described in Example 1) was used to study the inhibitory effect of the eluted fractions on Jurkat cell adhesion to immobilized VCAM-1 and on K562 cell adhesion to fibronectin. […]
as §2

T4 sequence (P06756 31-889 limits assumed): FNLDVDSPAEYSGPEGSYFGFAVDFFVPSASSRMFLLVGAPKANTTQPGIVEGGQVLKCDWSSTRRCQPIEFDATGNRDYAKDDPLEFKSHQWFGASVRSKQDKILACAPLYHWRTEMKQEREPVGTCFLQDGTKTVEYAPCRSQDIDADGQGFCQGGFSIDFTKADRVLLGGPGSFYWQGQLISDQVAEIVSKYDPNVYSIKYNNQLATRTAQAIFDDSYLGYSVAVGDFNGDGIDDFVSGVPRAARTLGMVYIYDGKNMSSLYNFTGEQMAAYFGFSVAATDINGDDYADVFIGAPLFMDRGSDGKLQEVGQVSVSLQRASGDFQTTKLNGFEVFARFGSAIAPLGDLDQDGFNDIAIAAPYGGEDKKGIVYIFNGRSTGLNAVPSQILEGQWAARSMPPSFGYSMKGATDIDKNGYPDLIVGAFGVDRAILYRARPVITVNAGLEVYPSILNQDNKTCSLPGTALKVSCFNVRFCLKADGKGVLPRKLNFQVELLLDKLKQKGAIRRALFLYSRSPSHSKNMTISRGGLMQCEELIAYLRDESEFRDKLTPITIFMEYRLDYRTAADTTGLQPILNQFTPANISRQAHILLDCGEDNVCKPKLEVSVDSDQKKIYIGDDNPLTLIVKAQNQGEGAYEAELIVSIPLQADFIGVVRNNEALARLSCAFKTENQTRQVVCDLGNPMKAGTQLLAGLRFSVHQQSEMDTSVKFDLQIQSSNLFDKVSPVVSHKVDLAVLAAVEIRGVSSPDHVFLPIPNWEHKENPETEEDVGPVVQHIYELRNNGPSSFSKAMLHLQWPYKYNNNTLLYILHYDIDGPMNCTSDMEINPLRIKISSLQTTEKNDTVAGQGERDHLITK
T4 sequence (P06756 891-1048 partner limits assumed): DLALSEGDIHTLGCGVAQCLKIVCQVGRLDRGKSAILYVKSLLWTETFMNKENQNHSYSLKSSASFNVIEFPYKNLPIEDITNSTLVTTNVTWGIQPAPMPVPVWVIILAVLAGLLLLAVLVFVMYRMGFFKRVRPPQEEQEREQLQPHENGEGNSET
T4 sequence (P05106 27-788): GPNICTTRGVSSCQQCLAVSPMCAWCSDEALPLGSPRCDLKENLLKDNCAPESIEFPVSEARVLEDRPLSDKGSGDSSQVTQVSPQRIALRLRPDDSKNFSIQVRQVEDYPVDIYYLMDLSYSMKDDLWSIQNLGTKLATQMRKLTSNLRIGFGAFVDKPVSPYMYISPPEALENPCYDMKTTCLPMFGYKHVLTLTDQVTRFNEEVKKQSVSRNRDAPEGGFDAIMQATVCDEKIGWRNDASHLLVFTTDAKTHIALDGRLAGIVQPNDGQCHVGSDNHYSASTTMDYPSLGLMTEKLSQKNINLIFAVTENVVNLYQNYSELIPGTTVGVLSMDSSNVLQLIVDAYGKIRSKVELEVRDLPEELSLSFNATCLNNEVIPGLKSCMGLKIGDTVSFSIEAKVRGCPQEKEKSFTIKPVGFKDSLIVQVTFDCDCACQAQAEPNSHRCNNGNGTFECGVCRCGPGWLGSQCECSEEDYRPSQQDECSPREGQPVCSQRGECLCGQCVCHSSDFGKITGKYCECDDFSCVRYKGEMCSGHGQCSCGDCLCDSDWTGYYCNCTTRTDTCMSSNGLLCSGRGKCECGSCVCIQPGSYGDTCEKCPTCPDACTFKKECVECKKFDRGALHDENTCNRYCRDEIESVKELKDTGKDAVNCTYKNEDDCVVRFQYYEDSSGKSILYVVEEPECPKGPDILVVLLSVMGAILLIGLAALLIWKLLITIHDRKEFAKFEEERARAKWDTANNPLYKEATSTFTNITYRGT
T10 sequence (P23229 24-938 limits assumed): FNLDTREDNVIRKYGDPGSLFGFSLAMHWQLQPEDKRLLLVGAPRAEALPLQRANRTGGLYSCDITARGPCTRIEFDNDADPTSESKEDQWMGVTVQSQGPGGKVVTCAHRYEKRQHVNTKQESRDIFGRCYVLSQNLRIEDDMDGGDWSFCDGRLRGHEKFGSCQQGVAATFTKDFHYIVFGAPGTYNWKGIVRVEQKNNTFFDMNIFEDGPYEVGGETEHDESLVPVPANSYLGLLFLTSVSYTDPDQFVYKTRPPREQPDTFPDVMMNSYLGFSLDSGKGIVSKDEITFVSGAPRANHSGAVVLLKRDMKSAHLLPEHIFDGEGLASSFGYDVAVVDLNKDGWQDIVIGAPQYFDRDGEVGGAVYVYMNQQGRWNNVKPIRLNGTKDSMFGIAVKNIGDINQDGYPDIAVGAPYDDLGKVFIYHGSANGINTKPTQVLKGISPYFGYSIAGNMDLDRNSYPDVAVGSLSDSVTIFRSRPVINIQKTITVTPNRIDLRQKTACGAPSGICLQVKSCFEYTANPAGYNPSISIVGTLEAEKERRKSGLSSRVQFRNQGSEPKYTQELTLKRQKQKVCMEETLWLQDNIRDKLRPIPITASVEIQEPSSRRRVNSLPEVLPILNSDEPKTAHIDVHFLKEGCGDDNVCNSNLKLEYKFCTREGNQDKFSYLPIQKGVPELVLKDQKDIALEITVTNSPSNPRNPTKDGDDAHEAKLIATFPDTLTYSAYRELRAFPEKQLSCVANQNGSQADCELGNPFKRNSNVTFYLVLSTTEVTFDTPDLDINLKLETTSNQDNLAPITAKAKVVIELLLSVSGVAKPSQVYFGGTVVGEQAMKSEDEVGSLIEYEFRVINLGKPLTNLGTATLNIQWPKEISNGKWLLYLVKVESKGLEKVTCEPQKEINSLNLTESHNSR
T10 sequence (P23229 942-1130 partner limits assumed): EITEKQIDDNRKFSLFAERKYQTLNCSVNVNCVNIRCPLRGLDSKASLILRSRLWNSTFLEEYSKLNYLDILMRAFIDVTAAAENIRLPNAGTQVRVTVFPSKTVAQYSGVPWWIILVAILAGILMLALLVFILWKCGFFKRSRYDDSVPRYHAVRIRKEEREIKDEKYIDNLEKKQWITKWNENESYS
T10 sequence (P05556 21-798): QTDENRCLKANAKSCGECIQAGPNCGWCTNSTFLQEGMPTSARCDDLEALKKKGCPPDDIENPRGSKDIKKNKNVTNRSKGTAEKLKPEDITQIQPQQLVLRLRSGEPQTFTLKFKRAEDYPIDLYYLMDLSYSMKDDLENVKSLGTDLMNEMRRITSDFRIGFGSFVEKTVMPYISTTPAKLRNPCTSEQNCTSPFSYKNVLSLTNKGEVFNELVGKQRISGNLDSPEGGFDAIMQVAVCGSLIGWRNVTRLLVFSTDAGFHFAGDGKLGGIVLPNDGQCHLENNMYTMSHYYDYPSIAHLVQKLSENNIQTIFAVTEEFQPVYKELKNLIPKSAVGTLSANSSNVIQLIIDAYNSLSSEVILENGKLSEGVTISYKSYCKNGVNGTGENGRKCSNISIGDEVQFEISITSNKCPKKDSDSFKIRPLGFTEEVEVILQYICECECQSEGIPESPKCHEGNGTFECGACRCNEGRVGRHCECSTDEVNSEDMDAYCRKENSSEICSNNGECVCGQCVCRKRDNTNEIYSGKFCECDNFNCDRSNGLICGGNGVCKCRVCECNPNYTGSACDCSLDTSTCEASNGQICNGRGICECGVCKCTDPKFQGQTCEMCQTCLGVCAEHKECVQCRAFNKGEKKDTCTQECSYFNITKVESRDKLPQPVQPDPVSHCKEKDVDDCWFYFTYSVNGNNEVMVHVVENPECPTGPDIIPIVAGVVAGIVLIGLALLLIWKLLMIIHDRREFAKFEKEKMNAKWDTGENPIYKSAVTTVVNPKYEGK
T1 sequence (P08648 42-894 limits assumed): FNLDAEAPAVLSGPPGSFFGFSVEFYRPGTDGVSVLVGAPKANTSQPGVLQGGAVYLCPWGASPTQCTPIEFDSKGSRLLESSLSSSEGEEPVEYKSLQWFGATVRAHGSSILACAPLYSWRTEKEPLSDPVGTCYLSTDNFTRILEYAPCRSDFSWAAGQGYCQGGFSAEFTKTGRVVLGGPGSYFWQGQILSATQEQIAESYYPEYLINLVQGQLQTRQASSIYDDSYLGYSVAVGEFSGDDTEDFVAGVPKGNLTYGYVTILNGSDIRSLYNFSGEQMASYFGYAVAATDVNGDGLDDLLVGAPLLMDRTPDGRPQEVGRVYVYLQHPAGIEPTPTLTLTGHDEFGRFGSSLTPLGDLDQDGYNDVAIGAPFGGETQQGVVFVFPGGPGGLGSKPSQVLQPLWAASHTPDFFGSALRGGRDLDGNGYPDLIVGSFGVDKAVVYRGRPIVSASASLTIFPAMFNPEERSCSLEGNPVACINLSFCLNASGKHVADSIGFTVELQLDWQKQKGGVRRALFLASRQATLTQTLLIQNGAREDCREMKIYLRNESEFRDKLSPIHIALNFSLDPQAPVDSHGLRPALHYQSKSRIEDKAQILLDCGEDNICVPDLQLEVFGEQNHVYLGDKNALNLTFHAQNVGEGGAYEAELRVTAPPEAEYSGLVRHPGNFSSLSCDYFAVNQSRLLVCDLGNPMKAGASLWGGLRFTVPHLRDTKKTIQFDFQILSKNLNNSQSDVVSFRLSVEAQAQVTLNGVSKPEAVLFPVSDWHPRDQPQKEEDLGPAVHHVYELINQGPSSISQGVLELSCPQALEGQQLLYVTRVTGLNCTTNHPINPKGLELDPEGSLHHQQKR
T1 sequence (P08648 895-1049 partner limits assumed): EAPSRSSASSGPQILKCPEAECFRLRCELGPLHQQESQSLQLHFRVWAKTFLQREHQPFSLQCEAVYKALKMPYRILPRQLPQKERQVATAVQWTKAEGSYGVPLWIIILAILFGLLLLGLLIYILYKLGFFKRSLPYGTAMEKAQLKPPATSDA
T1 sequence (P05556 21-798): as the sequence (P05556 21-798) above

B1: EC-3 (protein, listed as Echis carinatus)
chain 1: NSVHPCCDPVKCEPREGEHCISGPCCRNCYFLRAGTVCKRAVGDDVDDYCSGITPDCPRNRYKGKED
chain 2: NSVHPCCDPVKCEPREGEHCISGPCCRNCKFLNAGTICKRAMLDGLNDYCTGISTDCPRNRYKGKED
inhibition of binding of K562 cells to immobilized fibronectin (α5β1): inhibited binding
interaction of inactive G190A α4 mutant with immobilized EC3 (α4 inactive G190A mutant): did not interact
IC50 (α4β7 [1]): 5 nM
Number of Islets, Infiltration Score ++ ([2]; ++ = ⅓ of the islet infiltrated, of 27 (echistatin) or 29 (EC-3) islets, nine weeks i.p.): 7
Number of Islets, Infiltration Score +++ ([2]; +++ = ½ or more of the islet infiltrated, of 27 (echistatin) or 29 (EC-3) islets, nine weeks i.p.): 0
Number of Animals without infiltration ([2]; NOD mice, i.p. three times per week for nine weeks, echistatin 1 μg/mouse, EC-3 3 μg/mouse, 10 animals per group): 2
effect on lymphocyte infiltration in pancreatic islets of NOD mice (in words) ([2]; echistatin 1 μg/mouse, EC-3 3 μg/mouse, i.p. three times per week, nine weeks): reduced levels of lymphocyte infiltration; also recorded: can block lymphocyte invasion; also recorded: reduced the level of lymphocyte infiltration
Number of Islets, Infiltration Score − ([2]; − = no infiltration, of 27 (echistatin) or 29 (EC-3) islets, nine weeks i.p.): 10
IC50 (αvβ3; VNRC3 (CHOαvβ3+) cells, ligand Vn): > 10000 nM
inhibition of αvβ3-dependent adhesion (αvβ3; up to 10 μM): no inhibition
IC50 (αIIbβ3 [3]): 1000 nM
IC50 (α4β1 and α4β7 integrins; anchorage-dependent and anchorage-independent cells, read-out: concentration of highly potent inhibition of interaction of cells expressing α4β1 with VCAM-1 or CS-1): 20 to 300 nM
IC50 (α4β1 and α4β7 integrins; read-out: IC50, adhesion of cells expressing α4β1 and α4β7 integrins to VCAM-1 and MadCAM-1): 5 to 300 nM
IC50 (α4β1 [4]): 30 nM
IC50 (α4β7 [5]): 6 nM
IC50 (α4β1 [6]): 28 nM
IC50 (αIIbβ3 [7]): 500 nM
inhibition of HP2/1 binding to α4B2 cells (α4β1 integrin [8]): inhibition of HP2/1 binding
inhibition of HP2/1 binding to Jurkat cells (α4β1 integrin [9]): No inhibitory effect
IC50 (α6β1; K562 (α6+) cells, α6β1, ligand Lm): > 10000 nM
inhibition of adhesion to laminin of K562 cells transfected with α6 (α6β1; at concentration 10 μM): neither echistatin nor EC3 inhibited
IC50 (α4β1 [10]): 100 nM
IC50 (α4β1 [11]): 30 nM
inhibitory effect on Jurkat cell binding to immobilized VCAM-1 (α4β1 [12]; 5 μg per sample of protein from fraction): significant inhibitory effects
IC50 (α4β1 [12]; Jurkat cells, ligand VCAM-1, read-out: IC50, cell adhesion): 25 nM
